Test results published in patent US20160340422A1 (BEIJING HANMI PHARMACEUTICAL, published 2016).

Key:
Human IL-17A = Human IL-17A (human, UniProt Q16552 24-155); assay: cell-based or functional assay
Mouse IL-17A = molecular target: T1, Mouse IL-17A (mouse, UniProt Q62386 26-158, limits assumed); assay: ELISA, coated mouse IL-17A, HRP anti-mouse IgG
T1 construct: Bought recombinant protein; also called mice IL-17A
T1 sequence (looked up): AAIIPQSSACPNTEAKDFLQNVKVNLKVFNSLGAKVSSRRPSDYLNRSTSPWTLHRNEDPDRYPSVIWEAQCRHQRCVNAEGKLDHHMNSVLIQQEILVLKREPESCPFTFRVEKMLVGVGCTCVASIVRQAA
Experimental: The plated is blocked with PBST comprising 1% BSA, 300 μL/well, and incubated at 25° C. for at least 1 hour. The plate is washed with PBST for 5 times. Samples to be tested is added at a specific concentration, which are diluted in PBST comprising 1% BSA, 100 μL/well, and incubated at 25° C. for 1 hour. The plate is washed with PBST for 5 times. Then a horse radish peroxidase labeled anti-mouse IgG antibody (1:10,000, in PEST comprising 1% BSA) (Abeam, product No. Ab7068) is added, 100 U L/well, and incubated at 25° C. for 1 hour. The plate is washed with PBST for 5 times. […] 1M H₂SO₄is added with 100 μL/well to terminate the colorimetric development. The Absorbance at 450 nm is read on ELISA.

Human IL-17A, sequence (Q16552 24-155 limits assumed): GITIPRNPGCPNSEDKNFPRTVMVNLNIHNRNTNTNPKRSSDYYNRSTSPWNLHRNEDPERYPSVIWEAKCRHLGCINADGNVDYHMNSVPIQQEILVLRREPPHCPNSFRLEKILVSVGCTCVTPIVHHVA

B1: Control antibody A (antibody, mouse IgG2a, kappa, V domains shown)
VH: QVQLKESGPGLVQPSQTLSLTCTVSGFSLTNYYVHWVRQPPGKGLEWMGGVWNDGDTSYNSVLRSRLSITRDTSKSQVLLKMSSLQTEDTATYYCAREGREGFVGYYVMDAWGPGASVTVSS
VL: DIQMTQSPSFLSASVGERVTLSCKASQNINKYLDWFQQKLGEAPKLLIYNADNLHTGIPSRFSGSGSFSDFILTISSLQPEDDATYFCLQRESWPYTFGAGTKLELKR
notes: Corresponds to the anti-IL-17A antibody moiety of bifunctional fusion proteins A and C; also called anti-IL-17A antibody (rat 1D10 variable region, mouse IgG2a constant region); anti-IL-17A mAb
Human IL-17A
  IC50 for inhibiting GROα secretion from HT-29 cells induced by IL-17A: 0.532 nM
Mouse IL-17A
  binding result: binds
